Reference: patent US20090036380A1, “Composition And Method For Brain Tumor Therapy” (Yeda Research and Development Co., Ltd., priority 2006, published 2009)

Molecular target: EGFR-Flag (UniProt P00533)
Test: cell-based or functional assay

Chain of HA-Karet (full-length mouse Karet with N-terminal haemagglutinin tag) (Q8K2Y9 whole entry): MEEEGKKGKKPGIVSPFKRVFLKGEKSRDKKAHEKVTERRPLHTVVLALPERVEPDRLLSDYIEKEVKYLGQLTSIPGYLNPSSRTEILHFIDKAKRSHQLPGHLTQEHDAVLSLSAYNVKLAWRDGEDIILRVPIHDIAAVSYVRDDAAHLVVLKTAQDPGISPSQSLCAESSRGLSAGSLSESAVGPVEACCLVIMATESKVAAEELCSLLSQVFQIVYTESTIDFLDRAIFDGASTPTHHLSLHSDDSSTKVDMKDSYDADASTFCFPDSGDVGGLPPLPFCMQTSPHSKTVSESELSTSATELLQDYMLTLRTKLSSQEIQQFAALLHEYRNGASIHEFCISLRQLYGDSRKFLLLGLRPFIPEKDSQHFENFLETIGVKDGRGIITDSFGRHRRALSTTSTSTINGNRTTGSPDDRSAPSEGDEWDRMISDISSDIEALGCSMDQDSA

“HA-Karet (full-length mouse Karet with N-terminal haemagglutinin tag) (from UniProt Q8K2Y9 1-453)” was tested, and the decrease in cell viability, Hek cells co-transfected with EGFR and Karet (XTT) was 40%.
